# Laboratory results: patent US20240293512A1 (HANMI PHARM, published 2024)
# Bridge positions count the residues as written; N and C are the ends. Square brackets hold non-standard residues; d marks the D form. Ends that are not written are not given here. * marks the point of attachment. Acetyl(2-(4-imidazolyl)) = O=C(Cc1c[nH]cn1)*; Aib = CC(C)(N)C(=O)O
# T1: human GIP receptor (human, UniProt P48546 22-466)
# T1 sequence (looked up): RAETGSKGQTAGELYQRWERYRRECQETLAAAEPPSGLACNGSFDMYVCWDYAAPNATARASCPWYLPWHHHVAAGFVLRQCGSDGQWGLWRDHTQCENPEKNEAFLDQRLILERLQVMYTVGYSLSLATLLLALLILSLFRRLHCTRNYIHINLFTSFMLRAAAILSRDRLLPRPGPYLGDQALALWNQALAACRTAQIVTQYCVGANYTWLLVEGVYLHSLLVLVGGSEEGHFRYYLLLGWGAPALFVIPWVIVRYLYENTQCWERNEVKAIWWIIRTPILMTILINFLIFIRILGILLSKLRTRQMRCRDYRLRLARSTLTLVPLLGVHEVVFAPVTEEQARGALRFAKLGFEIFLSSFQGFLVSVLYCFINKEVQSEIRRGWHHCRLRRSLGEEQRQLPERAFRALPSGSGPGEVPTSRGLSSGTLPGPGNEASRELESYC
# What was measured:
# Assay in all cases: cell-based or functional assay
# [1] = target: human GLP-1 receptor (human, UniProt P43220 24-463)
# [2] = target: human GCG receptor (human, UniProt P47871 26-477)
# [3] = target: T1, human GIP receptor
# human GCG receptor, sequence (P47871 26-477): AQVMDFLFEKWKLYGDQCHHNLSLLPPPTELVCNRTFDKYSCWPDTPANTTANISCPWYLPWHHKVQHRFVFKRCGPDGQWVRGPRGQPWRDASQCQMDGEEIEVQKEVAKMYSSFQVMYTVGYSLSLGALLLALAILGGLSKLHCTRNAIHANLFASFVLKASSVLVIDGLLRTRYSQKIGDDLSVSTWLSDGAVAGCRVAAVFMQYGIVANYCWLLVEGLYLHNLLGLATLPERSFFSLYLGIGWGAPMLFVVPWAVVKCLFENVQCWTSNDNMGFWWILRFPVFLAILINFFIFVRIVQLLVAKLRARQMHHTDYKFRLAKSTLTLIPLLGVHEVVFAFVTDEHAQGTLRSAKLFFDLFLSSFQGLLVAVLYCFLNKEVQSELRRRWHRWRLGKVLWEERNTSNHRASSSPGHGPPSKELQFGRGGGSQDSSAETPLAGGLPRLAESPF
Binder,In vitro activity compared with native peptide (%) vs GLP-1 (cAMP EC50) [1] [%],In vitro activity compared with native peptide (%) vs Glucagon (cAMP EC50) [2] [%],In vitro activity compared with native peptide (%) vs GIP (cAMP EC50) [3] [%]
H[Aib]QGTFTSDYSKCLDEKRAKEFVQWLLDHHPSSGQPPPS (bridge 16-20) [triple agonist of SEQ ID NO: 65],95.4,25.2,11.6
Y[Aib]QGTFTSDYSKCLDEKRAKDFVQWLLDHHPSSGQPPPS (bridge 16-20) [triple agonist of SEQ ID NO: 70],15.1,71.3,64.4
Y[Aib]QGTFTSDYSKYLDECAAKDFVQWLLDHHPSSGQPPPS (bridge (positions not given here); ends not checked; also: ring formation between two underlined residues) [triple agonist of SEQ ID NO: 67],28.5,46.2,39.8
{Acetyl(2-(4-imidazolyl))}-[Aib]QGTFTSDYSIAMDEIACKDFVNWLLNTK (bridge 15-19) [triple agonist of SEQ ID NO: 61],59.8,< 0.1,2.8
{Acetyl(2-(4-imidazolyl))}-[Aib]QGTFTSDCSKYLDERAAQDFVQWLLDGGPSSGAPPPS [triple agonist of SEQ ID NO: 63],15.3,< 0.1,< 0.1
H[Aib]QGTFTSDVSKYLDGQAAQEFVAWLLKGC [triple agonist of SEQ ID NO: 8],14.2,0.1,< 0.1
H[Aib]QGTFTSDVSKYLDGQAAKEFVAWLLKGC [triple agonist of SEQ ID NO: 7],13.7,< 0.1,< 0.1
Y[Aib]QGTFTSDYSKYLDEKAAKEFVQWLLDHHPSSGQPPPSC (bridge 16-20) [triple agonist of SEQ ID NO: 75],35.1,8.5,18
Y[Aib]QGTFTSDYSKYLDEKAAKDFVQWLLDHHPSSGQPPPSC (bridge 16-20) [triple agonist of SEQ ID NO: 77],38.7,12.2,35.5
{Acetyl(2-(4-imidazolyl))}-[Aib]QGTFTSDYSIAMDEKHCKDFVNWLLNTK (bridge 15-19) [triple agonist of SEQ ID NO: 60],106,< 0.1,8.2
Y[Aib]QGTFTSDYSKYLDECAAKEFVQWLLDHHPSSGQPPPS (bridge 16-20) [triple agonist of SEQ ID NO: 64],64.6,60.1,92.9
Y[Aib]QGTFTSDYSKYLDEKRAKDFVQWLLDHHPSSGQPPPSC (bridge 16-20) [triple agonist of SEQ ID NO: 76],10.3,47.6,11.7
Y[Aib]QGTFTSDYSKCLDERAAKEFVQWLLDHHPSSGQPPPS (bridge 16-20) [triple agonist of SEQ ID NO: 69],24.3,9.6,62.8
{Acetyl(2-(4-imidazolyl))}-[Aib]QGTFTSDYSICMDEKHQKDFVNWLLNTK (bridge 15-19) [triple agonist of SEQ ID NO: 59],40.3,< 0.1,4
Y[Aib]QGTFTSDCSKYLDERAAKDFVQWLLDHHPSSGQPPPS (bridge 16-20) [triple agonist of SEQ ID NO: 72],11.5,1,1.6
{Acetyl(2-(4-imidazolyl))}-[Aib]QGTFTSDYSKYLDECRAKEFVQWLLDHHPSSGQPPPS (bridge 15-19) [triple agonist of SEQ ID NO: 73],22.6,5.4,3
Y[Aib]QGTFTSDYSKCLDEKAAKEFVQWLLDHHPSSGQPPPS (bridge 16-20) [triple agonist of SEQ ID NO: 68],27.9,8.8,107
Y[Aib]QGTFTSDYSKYLDECRAKDFVQWLLDHHPSSGQPPPS (bridge 16-20) [triple agonist of SEQ ID NO: 66],15.8,172,17.2
{Acetyl(2-(4-imidazolyl))}-[Aib]QGTFTSDKSKYLDERAAQDFVQWLLDGGPSSGAPPPS [triple agonist of SEQ ID NO: 62],5.2,< 0.1,< 0.1
Y[Aib]QGTFTSDYSKYLDERACKDFVQWLLDHHPSSGQPPPS (bridge 16-20) [triple agonist of SEQ ID NO: 71],90.1,12.7,94.7
{Acetyl(2-(4-imidazolyl))}-[Aib]QGTFTSDYSKCLDEKRAKEFVQWLLDHHPSSGQPPPS (bridge 15-19) [triple agonist of SEQ ID NO: 74],12.9,0.9,1
